The labels stand for the following.
B1: 9H04 (hybridoma): murine/human chimeric anti-OX40L antibody purified from hybridoma supernatant (protein, listed as Homo Sapiens)
chain: QVQLVESGGGLVKPGGSLRLSCAASRFTLSDYYMTWIRQAPGKGLEWVSYISSSGNTIYYADSVKGRFTISRDNAKNSLYLQMNSLRAEDTAVYYCARDLSGSYWDYYYGMDVWGQGTTVTVSS
modifications: VH only; VL and constant regions missing
notes: murine/human chimeric anti-OX40L antibody purified from hybridoma supernatant
B2: 10A07 (hybridoma): murine/human chimeric anti-OX40L antibody 10A07 purified from hybridoma supernatant (antibody, V domains shown)
VH: EVQLVESGGVLVQPGGSLRLSCAASGFTFSSYIMTWVRQAPGKGLEWVSGISGSGGGTYYADSMKGRFTISRDNSKNTLYLQMNSLRVEDTAVYYCAKDRLGPITLVRGGYYYGMDVWGQGTTVTVSS
VL: DIQMTQSPSSLSASVGDRVTITCRASQSISDYLNWYQQKPGKAPKFLIYAASSLQSGVPSRFSGSGSGTDFTLTVSSLQPEDFATYYCQQSYSTPRTFGQGTRVEIK
B3: 2D10 (hybridoma): murine/human chimeric anti-OX40L antibody 2D10 purified from hybridoma supernatant (antibody, V domains shown)
VH: EVQLVESGGGLVQPGGSLRLSCAASGFTFSNYAMNWVRQAPGKGLEWVSTISGSGGATRYADSVKGRFTISRDNSRNTVYLQMNSLRVEDTAVFYCTKDRLIMATVRGPYYYGMDVWGQGTTVTVSS
VL: DIQMTQSPSSLSASVGDRVTITCRASQSISSYLNWYQQKPGKAPNLLIYAASSLQSGVPSRFSGSGSETDFTLTISSLQPEDFATYYCQQSHSVSFTFGPGTKVDIK

We go through three molecules from patent publication US11753479B2, “Nucleic acids encoding anti-OX40L antibodies” (Kymab Limited, priority 2014, dated 2023).

This test addresses T1, hOX40L expressed on CHO-S cells (Homo sapiens, UniProt P23510).
T1 construct: expressed in transfected cells
T1 sequence (P23510 1-183): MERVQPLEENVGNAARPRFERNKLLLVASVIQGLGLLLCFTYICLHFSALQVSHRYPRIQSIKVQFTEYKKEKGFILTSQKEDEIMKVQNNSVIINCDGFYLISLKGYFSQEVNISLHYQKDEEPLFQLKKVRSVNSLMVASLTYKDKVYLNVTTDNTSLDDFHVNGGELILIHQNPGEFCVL
Put plainly: Binding to CHO-S expressed hOX40L (FACS). The following applies: binding to CHO-S expressed hOX40L by FACS. The protocol: To determine whether wells selected using the primary screen selection criteria had the required characteristics set by the inventors, a number of assays were performed. Hybridoma clones selected as hits from primary screening were cultured for 3 days and the supernatants collected from hybridoma cells were tested to assess whether the secreted antibodies that bind to CHO-S expressed hOX40L, in some case bind to untransfected CHO-S cells and whether they neutralise recombinant OX40R Fc binding to CHO-S hOX40L and ability to neutralise OX40R binding to recombinant biotinylated hOX40L.
CHO-S cells expressing hOX40L or untransfected CHO-S cells, diluted in FACS buffer (PBS+1% w/v BSA+0.1% w/v NaN3) were distributed to a 96 well V-bottom plate (Greiner) at a density of 1×10^5 cells per well. Cells were washed with 150 μL of PBS and centrifuged at 300×g for 3 min. Supernatant was aspirated and 150 μL of PBS added. This wash step was repeated.
25 μL of hybridoma supernatant or purified antibody from hybridoma supernatant diluted in FACS buffer was added to the washed cells and incubated for 10-15 minutes. Reference Antibody or mouse IgG1 control antibody (Sigma) were diluted in FACS buffer to 20 μg/mL and 25 μL added to cells. 25 μL of human OX40R Fc (in-house) diluted to 1000 ng/mL in FACS buffer were then added to wells. Cells were incubated at 4° C. for 30 minutes.
Cells were washed twice with 150 μL of PBS centrifuging after each wash step and aspirating supernatant (centrifuged at 300×g for 3 minutes). […]
To fix cells 100 μL 2% v/v paraformaldehyde was added and cells incubated for 30 minutes at 4° C., cells were pelleted by centrifugation 300×g and the plates and resuspended in 50 μL of FACS buffer. PE and APC signal intensity (geomean) was measured by flow cytometry using a BD FACS Array instrument.
% of control binding was calculated using geomean fluorescence as described in equation 1 where total binding was defined as reference antibody at 10 μg/mL and non-specific binding as mouse IgG1 antibody at 10 μg/mL. % receptor binding was calculated using Equation 3. […]
In general terms: Flow cytometry measures light scatter and fluorescence of single cells or particles in a stream.
With B1, the “FACS Binding” value is “YES”.
Take B2: the “FACS Binding” value is listed as “YES”.
On to B3, for which the “FACS Binding” value was “YES”.
